Where a chain is given by its changes, count along the chain named. *1 amine or outer side, *2 acyl side, *3 side chain or, on linkers, in order; H or OH if unused. Where no end group is shown, it is not given here. Side-chain parts run from the residue outwards. [ ]: non-standard residue; d: D form. The star is where a group is joined. Decanoyl(10-(4-HOOC-PhO)) = O=C(O)c1ccc(OCCCCCCCCCC(=O)*)cc1; αMePhe(2-F) = C[C@](N)(Cc1ccccc1F)C(=O)O; γGlu = O=C(O)[C@H](CCC(=O)[*:2])N[*:1]; αMeY = C[C@](N)(Cc1ccc(O)cc1)C(=O)O; αMeL = CC(C)C[C@](C)(N)C(=O)O; Nle = CCCC[C@H](N)C(=O)O; Orn = NCCC[C@H](N)C(=O)O; AEEA = NCCOCCOCC(=O)O; Aib = CC(C)(N)C(=O)O
B1: Example 333 (peptide)
peptide: Y[Aib]EGT[αMePhe(2-F)]TSD[Nle]SI[αMeL]LD[Orn]IAQ[Aib]K([AEEA-AEEA-γGlu-Decanoyl(10-(4-HOOC-PhO))])FI[dE][αMeY]LIK([AEEA-AEEA-γGlu-Decanoyl(10-(4-HOOC-PhO))])GGPSSGAPPPS-NH2
modifications: N-terminus assumed
SMILES: CCCC[C@H](NC(=O)[C@H](CC(=O)O)NC(=O)[C@H](CO)NC(=O)[C@@H](NC(=O)[C@](C)(Cc1ccccc1F)NC(=O)[C@@H](NC(=O)CNC(=O)[C@H](CCC(=O)O)NC(=O)C(C)(C)NC(=O)[C@@H](N)Cc1ccc(O)cc1)[C@@H](C)O)[C@@H](C)O)C(=O)N[C@@H](CO)C(=O)N[C@H](C(=O)N[C@@](C)(CC(C)C)C(=O)N[C@@H](CC(C)C)C(=O)N[C@@H](CC(=O)O)C(=O)N[C@@H](CCCN)C(=O)N[C@H](C(=O)N[C@@H](C)C(=O)N[C@@H](CCC(N)=O)C(=O)NC(C)(C)C(=O)N[C@@H](CCCCNC(=O)COCCOCCNC(=O)COCCOCCNC(=O)CC[C@H](NC(=O)CCCCCCCCCOc1ccc(C(=O)O)cc1)C(=O)O)C(=O)N[C@@H](Cc1ccccc1)C(=O)N[C@H](C(=O)N[C@H](CCC(=O)O)C(=O)N[C@@](C)(Cc1ccc(O)cc1)C(=O)N[C@@H](CC(C)C)C(=O)N[C@H](C(=O)N[C@@H](CCCCNC(=O)COCCOCCNC(=O)COCCOCCNC(=O)CC[C@H](NC(=O)CCCCCCCCCOc1ccc(C(=O)O)cc1)C(=O)O)C(=O)NCC(=O)NCC(=O)N1CCC[C@H]1C(=O)N[C@@H](CO)C(=O)N[C@@H](CO)C(=O)NCC(=O)N[C@@H](C)C(=O)N1CCC[C@H]1C(=O)N1CCC[C@H]1C(=O)N1CCC[C@H]1C(=O)N[C@@H](CO)C(N)=O)[C@@H](C)CC)[C@@H](C)CC)[C@@H](C)CC)[C@@H](C)CC
B2: Example 292 (peptide)
peptide: YXEGTXTSDKXIXLDXKAQXEFIXXLIEGGPSSGAPPPS
modifications: Y-Aib-EGT-αMeF(2F)-TSDK((2-[2-(2-Amino-ethoxy)-ethoxy]-acetyl)2-(γ-Glu)-CO-(CH2)10-CH3)-Aib-I-αMeL-LD-Orn-K((2-[2-(2-Amino-ethoxy)-ethoxy]-acetyl)2-(γ-Glu)-CO-(CH2)10-CH3)AQ-Aib-EFI-(D-Glu)-αMeY-LIEGGPSSGAPPPS-NH2
B3: Example 345 (peptide)
peptide: B2 peptide with K10X, K17I, X24K, E28K
modifications: Y-Aib-EGT-αMeF(2F)-TSD-4Pal-Aib-I-αMeL-LD-Orn-IAQ-Aib-EFIK((2-[2-(2-Amino-ethoxy)-ethoxy]-acetyl)3-(γ-Glu)-(10-(4-carboxyphenoxy)decanoyl))-αMeY-LIK((2-[2-(2-Amino-ethoxy)-ethoxy]-acetyl)3-(γ-Glu)-(10-(4-carboxyphenoxy)decanoyl))GGPSSGAPPPS-NH2
B4: Example 335 (peptide)
peptide: B2 peptide with K10X, X11S, E28K
modifications: Y-Aib-EGT-αMeF(2F)-TSD-hTyr-SI-αMeL-LD-Orn-K((2-[2-(2-Amino-ethoxy)-ethoxy]-acetyl)2-(γ-Glu)-CO-(CH2)10-CH3)AQ-Aib-EFI-(D-Glu)-αMeY-LIK((2-[2-(2-Amino-ethoxy)-ethoxy]-acetyl)2-(γ-Glu)-CO-(CH2)10-CH3)GGPSSGAPPPS-NH2
B5: Example 319 (peptide)
peptide: B2 peptide with K10V, E21K
modifications: Y-Aib-EGT-αMeF(2F)-TSDV-Aib-I-αMeL-LD-Orn-K((2-[2-(2-Amino-ethoxy)-ethoxy]-acetyl)2-(γ-Glu)-(10-(4-carboxyphenoxy)decanoyl))AQ-Aib-K((2-[2-(2-Amino-ethoxy)-ethoxy]-acetyl)2-(γ-Glu)-(10-(4-carboxyphenoxy)decanoyl))FI-(D-Glu)-αMeY-LIEGGPSSGAPPPS-NH2
B6: Example 346 (peptide)
peptide: B2 peptide with K10Y, K17I, X24K, E28K
modifications: Y-Aib-EGT-αMeF(2F)-TSDY-Aib-I-αMeL-LD-Orn-IAQ-Aib-EFIK(2-[2-(2-Amino-ethoxy)-ethoxy]-acetyl)3-(γ-Glu)-(10-(4-carboxyphenoxy)decanoyl)-αMeY-LIK((2-[2-(2-Amino-ethoxy)-ethoxy]-acetyl)3-(γ-Glu)-(10-(4-carboxyphenoxy)decanoyl)GGPSSGAPPPS-NH2)
B7: Example 300 (peptide)
peptide: B2 peptide with K10Y, E21K
modifications: Y-Aib-EGT-αMeF(2F)-TSDY-Aib-I-αMeL-LD-Orn-K((2-[2-(2-Amino-ethoxy)-ethoxy]-acetyl)2-(γ-Glu)-CO-(CH2)10-CH3)AQ-Aib-K((2-[2-(2-Amino-ethoxy)-ethoxy]-acetyl)2-(γ-Glu)-CO-(CH2)10-CH3)FI-(D-Glu)-αMeY-LIEGGPSSGAPPPS-NH2
B8: Example 298 (peptide)
peptide: B2 peptide with K10X, X11S, E21K, E28X
modifications: Y-Aib-EGT-αMeF(2F)-TSD-4Pal-SI-αMeL-LD-Orn-K((2-[2-(2-Amino-ethoxy)-ethoxy]-acetyl)2-(γ-Glu)-CO-(CH2)10-CH3)AQ-Aib-K((2-[2-(2-Amino-ethoxy)-ethoxy]-acetyl)2-(γ-Glu)-CO-(CH2)10-CH3)FI-(D-Glu)-αMeY-LI-Orn-GGPSSGAPPPS-NH2
B9: Example 301 (peptide)
peptide: B2 peptide with K10Y, E28K
modifications: Y-Aib-EGT-αMeF(2F)-TSDY-Aib-I-αMeL-LD-Orn-K((2-[2-(2-Amino-ethoxy)-ethoxy]-acetyl)2-(γ-Glu)-CO-(CH2)10-CH3)AQ-Aib-EFI-(D-Glu)-αMeY-LIK((2-[2-(2-Amino-ethoxy)-ethoxy]-acetyl)2-(γ-Glu)-CO-(CH2)10-CH3)GGPSSGAPPPS-NH2

Target: human GLP-1 receptor (human, UniProt P43220 24-463)
Test: cell-based or functional assay

| Binder | cAMP EC50 (1.0% HSA) [nM] | cAMP Emax (1.0% HSA) [%] |
| --- | --- | --- |
| B1 | 70.4 |  |
| B2 | 4.35 |  |
| B3 | 11.8 |  |
| B4 | 12.3 |  |
| B5 | 28.1 | 114 |
| B6 | 19 | 97.7 |
| B7 | 19.6 |  |
| B8 | 3.64 |  |
| B9 | 12.9 |  |

Target: human glucagon receptor (human, UniProt P47871 26-477)
Test: cell-based or functional assay

| Binder | cAMP EC50 (1.0% HSA) [nM] |
| --- | --- |
| B1 | > 9950 |
| B2 | > 9950 |
| B3 | > 9950 |
| B4 | > 9950 |
| B5 | > 9950 |
| B6 | > 9950 |
| B7 | > 9950 |
| B8 | > 9950 |
| B9 | > 9950 |

Target: T1, human GIP receptor (human, UniProt P48546 22-466)
T1 sequence (looked up): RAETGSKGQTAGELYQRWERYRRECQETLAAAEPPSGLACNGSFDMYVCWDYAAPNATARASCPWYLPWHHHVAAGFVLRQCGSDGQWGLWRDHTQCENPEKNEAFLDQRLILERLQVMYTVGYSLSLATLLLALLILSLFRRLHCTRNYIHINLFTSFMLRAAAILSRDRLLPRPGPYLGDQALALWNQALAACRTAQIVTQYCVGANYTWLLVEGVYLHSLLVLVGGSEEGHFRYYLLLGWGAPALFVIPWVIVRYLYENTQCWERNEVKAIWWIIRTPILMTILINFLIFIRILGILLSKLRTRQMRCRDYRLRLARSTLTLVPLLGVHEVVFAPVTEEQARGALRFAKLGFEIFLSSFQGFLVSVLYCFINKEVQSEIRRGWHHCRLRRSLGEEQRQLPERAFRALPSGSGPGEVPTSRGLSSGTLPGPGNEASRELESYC
Test: cell-based or functional assay

| Binder | cAMP EC50 (1.0% HSA) [nM] | cAMP Emax (1.0% HSA) [%] |
| --- | --- | --- |
| B1 | 6.74 |  |
| B2 | 0.416 |  |
| B3 | 0.731 |  |
| B4 | 1.04 |  |
| B5 | 3.35 |  |
| B6 | 1.83 | 83.9 |
| B7 | 1.25 | 91.5 |
| B8 | 0.237 | 95 |
| B9 | 0.919 | 85.5 |

Target: hGLP-1R (Homo sapiens, UniProt P43220)
Test: cell-based or functional assay

| Binder | cAMP EC50 [nM] | cAMP Emax [%] |
| --- | --- | --- |
| B2 | 0.0758 | 104 |
| B5 | 0.18 | 100 |
| B7 | 0.194 | 107 |
| B8 | 0.19 | 106 |
| B9 | 0.175 | 99.2 |

Target: human glucagon receptor (human) (UniProt P47871)
Test: cell-based or functional assay

| Binder | cAMP EC50 [nM] |
| --- | --- |
| B2 | > 9950 |
| B5 | > 9950 |
| B7 | > 9950 |
| B8 | > 9950 |
| B9 | > 9950 |

Target: T2, human GIP receptor (human) (UniProt P48546)
T2 sequence (looked up): T1 sequence (looked up)
Test: cell-based or functional assay

| Binder | cAMP EC50 [nM] | cAMP Emax [%] |
| --- | --- | --- |
| B2 | 0.0062 |  |
| B5 | 0.0196 | 98.1 |
| B7 | 0.0128 | 102 |
| B8 |  | 97.4 |
| B9 | 0.0128 | 97.4 |

Reference: patent US20230265151A1, “GIP/GLP1 CO-AGONIST COMPOUNDS” (priority 2020, published 2023)
